{"source": "the nanobody polyreactivity screen of Harvey et al. (2022)"}
{"assay": "yeast display, Sf9 membrane polyspecificity reagent, FACS + sequencing; frameworks hold sequencing errors", "outline": "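In a synthetic yeast display library (Saccharomyces cerevisiae BJ5465), nanobody expression was induced with galactose for 36–48 hours. FACS gates were set low and high (top ~1%) using anti-HA fluorescence for expression and streptavidin fluorescence for binding of the Sf9 membrane reagent. Each polyreactivity label is drawn from the gate of origin.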"}
{"sequence": "QVQHVESGGGLVQAGGSLRLSCAASGRTFDWYAMGRYRQAPGKEMELVAAISSGGSTYYADSVKGRFTISRDNAKNTVYLQMNSLKPEDTAVYYCAAEWHYIYAYDYWGQGTQVTVSS", "polyreactivity (PSR sort gate)": "low polyreactivity"}
{"sequence": "QVQHVESGGGLVQAGGSLRLSCAASGRTFKGYAMGWYRQAPGKESQLVAGISTGGNTNYADSVMGRFTISRDNAKNTVYLQMNSLKPEDTAVYYCNAVYRGFTHYTGYEYWGQGTQVTVSS", "polyreactivity (PSR sort gate)": "high polyreactivity"}
{"sequence": "QVQHVESGGGLVQAGGSLRLSCAASGRTFQWYTLGWYRQAPGKERELVAAISWSGTSTYYADSVKGRFTISRDNEKNTVYLLMNSLKPEDTAVYYCAAKTYPSLFFHYGYWGQGTQVTVSS", "polyreactivity (PSR sort gate)": "low polyreactivity"}
{"sequence": "QVQHVESGGGLVQAGGSLRLSCAASGRTFRSYAMGWYRQAPGKEREFVATITRRGGSTYYADSVKGRFTISRDNAKNTVYLQMNSLKPEDTAVYYCNAVVSSQEYDYWGQGTQVTVSS", "polyreactivity (PSR sort gate)": "high polyreactivity"}
{"sequence": "QVQHVESGGGLVQAGGSLRLSCAASGRTFRYNAMGWSRQAPGKERELVAAISSGDRTNYADSVKGRFTISRDNAKYTVYLQMYSLKPEDTAVYYCAAQTDSYYDFDYWGQGTQVTVSS", "polyreactivity (PSR sort gate)": "low polyreactivity"}
{"sequence": "QVQHVESGGGLVQAGGSLRLSCAASGRTFTRYTMGWYRQAPGKERELVAAIRFSGGSTYYADSVKGRFTISRDNAKNTVYLQMNSLKPEDTAVYYCAATGGWYKHWFDYWGQGTQVTVSS", "polyreactivity (PSR sort gate)": "low polyreactivity"}
{"sequence": "QVQHVESGGGLVQAGGSLRLSCAASGRTFYRNAMGWYRPAPGKERELVAAISWSGGRTFYADSVKGRFTISRDNAKNTVYLQMNSLKPEDTAVYYCAKTYTTPGYYRYDYWGKGTQVTVSS", "polyreactivity (PSR sort gate)": "high polyreactivity"}
{"sequence": "QVQHVESGGGLVQAGGSLRLSCAASGSIFGKYAMGWYRQAPGKERELVARISRSSGSTYYADSVKGRFTISRDNAKNTVYLQMNSLKPEDTAVYYCAARAYLNQARPKYGYSYDYWGQGTQVTVSS", "polyreactivity (PSR sort gate)": "high polyreactivity"}
{"sequence": "QVQHVESGGGLVQAGGSLRLSCAASGSIFGTYAIGWYRQAPGKERELVATISYGDGSTYYADSVKGRFTISRDNAKNTVYLEMNSLKPEDTAVYYCNTGVYSSGGPLDYWGQGTQVTVSS", "polyreactivity (PSR sort gate)": "low polyreactivity"}
{"sequence": "QVQHVESGGGLVQAGGSLRLSCAASGSIFNRNAMGWYRQAPGKERELVAAITRRGGSTYYADSVKVRFTISRDNAMNTVYLQMNSLKPEDTAVYYCAAATRKTEYDYWGQGSQVTVSS", "polyreactivity (PSR sort gate)": "high polyreactivity"}
{"sequence": "QVQHVESGGGLVQAGGSLRLSCAASGSIFPLNAMGWSRQAPGQVSELVASISTGSSTYYADSVKGRFTISRDNAKNTVYLQMISLKPEDTAVYFCAVDRVLFSDFNRGYEYNYWGQGTQVTVSS", "polyreactivity (PSR sort gate)": "low polyreactivity"}
{"sequence": "QVQHVESGGGLVQAGGSLRLSCAASGSIFPVYAMRWYRQAPGKEREFVASIRWRGGSTSYADSVKGRFTISRDNAKNTVYLQMNSLKPEDTAVYYCNAVYYSWAQSARFDYWGQGTQVTVSS", "polyreactivity (PSR sort gate)": "low polyreactivity"}
{"sequence": "QVQHVESGGGLVQAGGSLRLSCAASGSIFSYYAMGWYRQPPGKERELVATISSGDSTYYADSVKGRFTISRDNAKKTVYLQMNSLKPEDTAVYYCARKPRIRYYPAPYDYWGQGTQVTVSS", "polyreactivity (PSR sort gate)": "low polyreactivity"}
{"sequence": "QVQHVESGGGLVQAGGSLRLSCAASGSIIPSNVMGWYRQATGKEREFVAGITFRVGSTYYADSVKGRFTISLDNAKNTVYLQMNSLKPEDTAVYYCAALIRAVDRYTYRYGYWGQGTQVTVSS", "polyreactivity (PSR sort gate)": "high polyreactivity"}
{"sequence": "QVQHVESGGGLVQAGGSLRLSCAASGSTFGPNAMGWYRQAPGKERELVAAINTRGGSTYYADSVKGRFTISRDNAKNTVYLQMNSLKPEDTAVYYCAAEYVVWYLDRFNYWGQGTQVTVSS", "polyreactivity (PSR sort gate)": "high polyreactivity"}
{"sequence": "QVQHVESGGGLVQAGGSLRLSCAASGSTFHDYAMAWYRQATGKEREFVAAIRWRGGSTYYADSVKGRFTISRDNAKNTVYLQMNSLKPEDTAVYYCAADYLQFRKYVVHFDYLGQGTQVTVSS", "polyreactivity (PSR sort gate)": "low polyreactivity"}
{"sequence": "QVQHVESGGGLVQAGGSLRLSCAASGSTFWNKAMGWYRQAPGKEREFVAAITRSTTSTYYADSVKGRFTISRDNAKNTVYLQMNSLKPEDTAVYFCAADTDIVLYDYWGQGTQVTVSS", "polyreactivity (PSR sort gate)": "low polyreactivity"}
{"sequence": "QVQHVESGGGLVQAGGSLRLSCAASGSTFYGNAMGWYRQAPGKEREFVASINSRGGITYYADSVKGRFTISRDNAKNTVYLQMNSLKPEDTAVYYCNTRVLSFYHYPYDYWGQGTQVTVSS", "polyreactivity (PSR sort gate)": "high polyreactivity"}
{"sequence": "QVQHVESGGGLVQAGGSLRLSCAASGSTFYINAKGWYRQAPGKEREFVASISWRGGSTYADSVKGRFTISRDNAKNTVYLQMNSLKPEDTAVYFCAAEFDVYSHHWITSYDYWGQGTQVTVSS", "polyreactivity (PSR sort gate)": "high polyreactivity"}
{"sequence": "QVQHVESGGGLVQAGGSLRLSCAASGSTIYHYAMGWSRPAHGKERELVAAITTIGGRTYYADSVKGRFTISRDNAKNTVYLQMNSLKPEDTAVYYCAAGYRAWEPYGHYGYWGQGTQVTVSS", "polyreactivity (PSR sort gate)": "high polyreactivity"}
{"sequence": "QVQHVESGGGLVQAGGSLRLSCAASGSTYNGYAMGWYRQATGKERELVAAISTSGGSTYYADSVKGRFTISRDNAKNTVYLQMNSLKPEDTAVYYCATYYGKRYMRRVDYWGQGTQVTVSS", "polyreactivity (PSR sort gate)": "high polyreactivity"}
{"sequence": "QVQHVESGGGLVQAGGSLRLSCAASGYNFPYNPMGWYRQATGKEREFVAASTSSGGSTYYADSVKGRFTISRDNAKNTVYLQMNSLKPEDTAVYYCARVPLHRYGYWGQGTQVNVSS", "polyreactivity (PSR sort gate)": "high polyreactivity"}
{"sequence": "QVQHVESGGGLVQAGGSLRLSCAASRLTFTRNAMGWYRQAPGKERELVAAITRSSGSTYYADSVKGRFTISRDNAKNTVYLQMNSLKPEDTAVYYCNARRAAYYHRARELDYWGQGTQVTVSS", "polyreactivity (PSR sort gate)": "high polyreactivity"}
{"sequence": "QVQHVESGGGLVQAGGSLRLSCAATGRIFTAYYAMGWYRQAPGKERELVASISSSGTSTYADSVKGRFTISRDNAKNTVYLQMNSLKPDDTAVYYCATRKLRTRRYDYGYWGQGTQVTVSS", "polyreactivity (PSR sort gate)": "low polyreactivity"}
{"sequence": "QVQHVESGGGLVQAGGSLRLSCAPSGITFYTYTMGWYRQAHGKERQLVAVISASGARTYYADSVKGRFTISRDNAKNTVYLQMNSLKPEDTAVYYCAARSYFISPWRFDYWGQGTQVTVSS", "polyreactivity (PSR sort gate)": "high polyreactivity"}
{"sequence": "QVQHVESGGGLVQAGGSLRLSCDASGSTFPYYTMGWYRQAPGKERELVAAITWRGGRTYYADSVKGRFTISRDNAKNTVYLQMNSLKPEDTAVYYCATGYSYRGYSALSGYDYWGQGTQVTVSS", "polyreactivity (PSR sort gate)": "high polyreactivity"}
{"sequence": "QVQHVESGGGLVQAGGSLRLSCPASGIIFDYYAMGWYRQAPGKERELVATITSGGSTNYADSVKGRFTISRDNAKNTVYLQMNSLKPEDTAVYYCAARTYWFPDIYPGLGMDYWGQGTQVTVSS", "polyreactivity (PSR sort gate)": "low polyreactivity"}
{"sequence": "QVQHVESGGGLVQAGGSLRLSSAASGFTFYGYAMGWYRPARGNERELVATIRRSTGSTYYADSVKGRFTISRDNAKYSVYLQMNSLKPDDTAVYYCATRVWFPITSYDYWGQGTQVTVSS", "polyreactivity (PSR sort gate)": "low polyreactivity"}
{"sequence": "QVQHVESGGGLVQAGGSLRLSSAASGRIFPINAMGWYRQAPGKERELVAAISYSGGSTYYADSVKGRFTISRDNAKNTVYLQMNSLKPEDTAVFYCNARYPYSYYHRYYYWGQGTQVTVSS", "polyreactivity (PSR sort gate)": "high polyreactivity"}
{"sequence": "QVQHVESGGGLVQAGGSNRLSCASSGSTFPGNAMGWYRQAPGKERELVARINDGADTNYADSVKGRFTISRDNAKNTVFLQMNSLKPEDTAVYYCAKPFYDGRTHFVSWGQGTQVTVSS", "polyreactivity (PSR sort gate)": "low polyreactivity"}
{"sequence": "QVQHVESGGGLVQAGGSRRLSCAASGRTFREYAMGWYRQAPGKERELVAAISDSGDSTYYADSVKGRFTISRDNAKNTVNLQMNSLKPVHTAVYYCAADYYDYEYDYWGQGTQVTVSS", "polyreactivity (PSR sort gate)": "low polyreactivity"}
{"sequence": "QVQHVESGGGLVQAGGTLRLSCASSGRTLYYYTMGWYRQAPGKESELVAAISKSGGSTYYADSVKGRFTISRDNAKNTVYLQMNSLKPEDTAVFYCAADRSAYSRGYVRYIYWGQGTKVTVSS", "polyreactivity (PSR sort gate)": "high polyreactivity"}
{"sequence": "QVQHVESGGGLVQAGRSLRLSCAASGFIFRYSAMGWYRPAPGKERELVATITGRGGSTYYADSVKGRFTISRDNAKNTVYLQMNSLIPEDTAVYYCAARARYSPAPYDYWGQGTQVTVSS", "polyreactivity (PSR sort gate)": "high polyreactivity"}
{"sequence": "QVQHVESGGGLVQARGSLRLSCAASGLTFNTYAMGWYRQAPGQDRELVAAISRRGSRTYYADSVKGRFTISRDNAKNTVYLQMNSLNREDTAVYYCAAPRASGYYWGQGTQVTVSS", "polyreactivity (PSR sort gate)": "high polyreactivity"}
{"sequence": "QVQHVESGGGLVQAVVSLRLSCAATGRIISYNAMGWYRQAPGKEWELVAAISWVGGSTYYADSVKGRFTISRDIAKNTVYLQMNCLKPEDTAVYYCAKGWYRIKRNDYWGQGTQVTVSS", "polyreactivity (PSR sort gate)": "low polyreactivity"}
{"sequence": "QVQHVESGGGLVQPGGSHRLSCAASGSTFQIYAMRWYRQAPGKVRELVAAITSSSSTNYADSVKGRFTISRDNAKNTDYLQMNSLKPEDPAVYYCAADVSRRCNWYDYWGQGTQVTVSS", "polyreactivity (PSR sort gate)": "low polyreactivity"}
{"sequence": "QVQHVESGGRLVQAGGSLRLSCAASGFIFPNYAMGWYRQAPGKERELVAVISRSGGSTYYADSVKGRFTISRDNAKNTVYLQMNSLKPEDTAVYYCNAVARGYGYDYWGQGTQVTVSS", "polyreactivity (PSR sort gate)": "high polyreactivity"}
{"sequence": "QVQHVESGGRLVQAGGSLRLSCAPSGFIFSKYAMGWYRQAPGKERELVAAITRSGGRTYYADSVKGRFTISRDNAKNTVYLQMNSLKPEDTAVYYCAASWLYFGRDYWGQGTQVTVSS", "polyreactivity (PSR sort gate)": "high polyreactivity"}
{"sequence": "QVQHVESGGRLVQAGGSLRLSWAASGRIFRVNAMGRYRQAPGKERELVAAINFSGTSTYFADSVKGRFTISRDNAKNTVYLQMNSLKPDDTAVYYCNALTTSNSGRFYYWGQGTQVTVSS", "polyreactivity (PSR sort gate)": "low polyreactivity"}
{"sequence": "QVQHVESGGVLVQAGGSLRLSCAASGSIFYPNAMGWYRQAPGKERELVAAISSSGGTNYADSVKGRFTISRDNAKNTVYLQMNSLKPEDTAVYYCNARDKVRYRFSRMDYWGQGTQVTVSS", "polyreactivity (PSR sort gate)": "low polyreactivity"}
{"sequence": "QVQHVESGRGLVQAGGSLRLSCAASGIIFLYYAMGWYREAPGKVRELVAAITGSGGTTYYADSVKGRFTISRDNAMNTVYLQMNSLKPEDTAVYYCATPPPEVWQRWYREYDYWGQGTQVTVSS", "polyreactivity (PSR sort gate)": "low polyreactivity"}
{"sequence": "QVQHVESGRGLVQAGGSLRLSCPASGSTFSYYAMGWYRQAPGKERELVASISSTTGSTYYADSVKGRFTISRDNAKNTVYVKMNSVKPEDTAVYYCAADIPPGGGDYWGQGSQVTVSS", "polyreactivity (PSR sort gate)": "low polyreactivity"}
{"sequence": "QVQHVESGRGLVQAGRSLRLSCAASGRIFQRYAMGWYRQAPGKERELVAVITKRGGNTYYADSVKGRFTISRDNAKNTVYLQMNSLKPEDTAVYYCASRSGRSTGDYWGQGTQVTVSS", "polyreactivity (PSR sort gate)": "high polyreactivity"}
